Patent US20240425848A1
One block for each substance: values may come before it.

Target: histone H3 trimethylated at lysine 9 (H3K9me3) in chromatin of NIH-3T3 cells (UniProt P68433)

score: coefficient of the linear model for the difference between TnH and Tn5 enrichment (scGET-seq, NIH-3T3), region chrUn JH584304:0-114452, cell group 0 (G1/S): 0.198
Substance: TnH #3: 112aaCD (HP1α)-3×(TGS)-Tn5

score: coefficient of the linear model for the difference between TnH and Tn5 enrichment (scGET-seq, NIH-3T3), region chrUn JH584304:0-114452, cell group 1 (G2/M): -0.133
score: coefficient of the linear model for the difference between TnH and Tn5 enrichment (scGET-seq, NIH-3T3), region chrUn JH584304:0-114452, cell group 2 (G2/M): -0.105
score: coefficient of the linear model for the difference between TnH and Tn5 enrichment (scGET-seq, NIH-3T3), region chrUn JH584304:0-114452, cell group 3 (G1/S): 0.329
score: coefficient of the linear model for the difference between TnH and Tn5 enrichment (scGET-seq, NIH-3T3), region chrUn JH584304:0-114452, cell group 4 (G1/S): 0.067
score: coefficient of the linear model for the difference between TnH and Tn5 enrichment (scGET-seq, NIH-3T3), region chrUn JH584304:0-114452, cell group 5 (G2/M): -0.146
score: coefficient of the linear model for the difference between TnH and Tn5 enrichment (scGET-seq, NIH-3T3), region chrUn JH584304:0-114452, cell group 6 (G1/S): 0.138
score: coefficient of the linear model for the difference between TnH and Tn5 enrichment (scGET-seq, NIH-3T3), region chrUn JH584304:0-114452, cell group 7 (G2/M): -0.189
score: coefficient of the linear model for the difference between TnH and Tn5 enrichment (scGET-seq, NIH-3T3), region chrUn JH584304:0-114452, cell group 8 (G2/M): -0.287
score: coefficient of the linear model for the difference between TnH and Tn5 enrichment (scGET-seq, NIH-3T3), region chrUn JH584304:0-114452, cell group 9 (G1/S): -0.523
score: coefficient of the linear model for the difference between TnH and Tn5 enrichment (scGET-seq, NIH-3T3), region chrUn JH584304:0-114452, cell group 10 (G2/M): -0.073
score: coefficient of the linear model for the difference between TnH and Tn5 enrichment (scGET-seq, NIH-3T3), region chrUn JH584304:0-114452, cell group 11 (G1/S): -0.457
score: coefficient of the linear model for the difference between TnH and Tn5 enrichment (scGET-seq, NIH-3T3), region chrUn JH584304:0-114452, cell group 12 (G1/S): 0.163
score: coefficient of the linear model for the difference between TnH and Tn5 enrichment (scGET-seq, NIH-3T3), region chrUn JH584304:0-114452, cell group 13 (G2/M): -0.528
score: coefficient of the linear model for the difference between TnH and Tn5 enrichment (scGET-seq, NIH-3T3), region chrUn JH584304:0-114452, cell group 14 (G2/M): -0.28
score: coefficient of the linear model for the difference between TnH and Tn5 enrichment (scGET-seq, NIH-3T3), region chrUn JH584304:0-114452, cell group 15 (G1/S): -0.47
score: coefficient of the linear model for the difference between TnH and Tn5 enrichment (scGET-seq, NIH-3T3), region chrUn JH584304:0-114452, cell group 16 (G1/S): 0.576
score: coefficient of the linear model for the difference between TnH and Tn5 enrichment (scGET-seq, NIH-3T3), region chrUn JH584304:0-114452, cell group 17 (G2/M): 0.468
score: coefficient of the linear model for the difference between TnH and Tn5 enrichment (scGET-seq, NIH-3T3), region chrUn JH584304:0-114452, cell group 18 (G1/S): -0.089
score: coefficient of the linear model for the difference between TnH and Tn5 enrichment (scGET-seq, NIH-3T3), region chrUn JH584304:0-114452, cell group 19 (G1/S): -0.129
score: coefficient of the linear model for the difference between TnH and Tn5 enrichment (scGET-seq, NIH-3T3), region chrUn JH584304:0-114452, cell group 20 (G2/M): -0.011
score: coefficient of the linear model for the difference between TnH and Tn5 enrichment (scGET-seq, NIH-3T3), region chrUn JH584304:0-114452, cell group 21 (G2/M): 0.138
Substance: TnH #3: 112aaCD (HP1α)-3×(TGS)-Tn5 (enzyme)
